B1: human CHIP-TPR (residues 21-154) [human] / biotin-… [modified: biotin, printed before the first residue (biotin-…); biotin, printed before the first residue (biotin-…)] [human] (parent)
chain 1: EKSPSAQELKEQGNRLFVGRKYPEAAACYGRAITRNPLVAVYYTNRALCYLKMQQHEQALADCRRALELDGQSVKAHFFLGQCQLEMESYDEAIANLQRAYSLAKEQRLNFGDDIPSALRIAKKKRWNSIEERR
chain 2: GSGSGPTIEEVD

Variants of: B1
Test: biolayer interferometry
Conditions: with biotin-… [modified: biotin, read off a plot

koff [s⁻¹] | kon [M⁻¹ s⁻¹] | Variant
0.0031 | 5800 | chain 1 G112N

Source: PMC13090976 (Cell Stress & Chaperones, 2026)
